Assay results from patent US8367368B2, “D-serine dehydratase and use thereof” (National University Corporation Nagoya University, priority 2006, dated 2013).
“Also recorded” adds a separate entry of the source.

Tests used:
Format in all cases: biochemical
[1] = target: T1, novel D-serine dehydratase (Saccharomyces cerevisiae, UniProt P53095); assay: Influence of metal ion and EDTA on enzymatic activity, Nessler method
T1 construct: made in house; host or cells: Escherichia coli BL21 (DE3)
T1 sequence (P53095 1-428): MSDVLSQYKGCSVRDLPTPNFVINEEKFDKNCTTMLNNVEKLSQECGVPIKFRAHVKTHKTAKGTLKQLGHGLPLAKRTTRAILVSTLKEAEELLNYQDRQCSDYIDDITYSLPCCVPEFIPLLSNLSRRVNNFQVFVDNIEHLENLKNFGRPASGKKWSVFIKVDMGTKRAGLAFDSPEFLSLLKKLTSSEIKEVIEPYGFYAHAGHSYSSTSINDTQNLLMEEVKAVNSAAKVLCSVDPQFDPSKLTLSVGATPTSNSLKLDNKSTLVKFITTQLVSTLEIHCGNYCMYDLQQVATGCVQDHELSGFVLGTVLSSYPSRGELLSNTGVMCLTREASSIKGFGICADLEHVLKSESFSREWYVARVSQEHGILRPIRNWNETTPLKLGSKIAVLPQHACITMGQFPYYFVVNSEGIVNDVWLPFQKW
Procedure: (§1) To a reaction solution (final volume: 200 μl) containing 50 mM of HEPES-NaOH buffer (pH 8.0), […] of pyridoxal-5′-phosphate and 10 mM of D-serine, an appropriate amount of D-serine dehydratase was added and incubated at 30° C. Thereafter, trichloroacetic acid (final concentration: 5%) was added to stop the reaction. Ammonia in the centrifuged supernatant was quantified by using a Nessler reagent.
The influence and effect of metal ion on the activity of the novel enzyme were examined by the following method. The compounds shown in FIG. 5 were incubated with untreated novel enzyme and 2 mM EDTA, and then dialyzed with Tris buffer solution. The D-serine dehydratase activity of the novel enzyme was measured by a Nessler method in the presence of 0.05 mM or 0.5 mM of any of KCl, NaCl, MnCl2, MgCl2, CaCl2, NiSO4, CuSO4 and ZnCl2.

[2] = Dynamic characteristic (reciprocal plot of rate against D-serine concentration), Nessler method; settings: substrate D-serine
Procedure: as §1
The dynamic characteristic of the novel enzyme was examined by the following method. In the Nessler method, the concentration of D-serine was changed and the D-serine dehydratase activity of the novel enzyme in the respective concentrations of D-serine was measured. The inverse number of the obtained rate was plotted to the inverse number of the D-serine concentration. Then, the maximum rate was calculated from the inverse number of the y section and Km value was calculated from the inverse number of the x section.

[3] = Substrate-specificity by the Nessler method, D-threonine as substrate; settings: same conditions as D-serine
Procedure: (§2) To a reaction solution (final volume: 200 μl) containing 50 mM of HEPES-NaOH buffer (pH 8.0), […] of pyridoxal-5′-phosphate and 10 mM of D-serine, an appropriate amount of D-serine dehydratase was added and incubated at 30° C. Thereafter, trichloroacetic acid (final concentration: 5%) was added to stop the reaction. Ammonia in the centrifuged supernatant was quantified by using a Nessler reagent. The substrate-specificity of the novel enzyme was examined by the following method. That is to say, as the substrate, L-serine and D-threonine in addition to D-serine were prepared, and the reactivity of the enzyme with respect to each substrate was examined by the Nessler method. Note here that the reactivity of the enzyme with respect to L-serine or D-threonine was examined by the Nessler method in the same conditions as in the case of D-Serine except that L-serine (Wako Pure Chemical Industries, Ltd.) or D-threonine (Wako Pure Chemical Industries, Ltd.) was used as a substrate.

[4] = D-serine dehydratase activity of the purified enzyme, Nessler method; settings: 10 mM D-serine, HEPES-NaOH pH 8.0, 30° C.
Procedure: as §1, with “The activity of serine dehydratase was measured as follows: ammonia as a reaction product was measured by a Nessler method or pyruvic acid as a reaction product was measured by coupling with lactate dehydrogenase and by oxidation of NADH. Hereinafter, outline of each method is shown. To” for “To”

[5] = Effect of pH on enzymatic activity, Nessler method; settings: MOPS, MES, HEPES, Tris buffers
Procedure: as §1
The relationship between the activity of the novel enzyme and pH at the reaction was examined by the following method. In the Nessler method, buffer solution was changed to MOPS (pH 6.5-8.0), MES (pH 6.0-6.5), HEPES (pH 7.0-8.5), and Tris (pH 7.5-9.0), respectively. By using the reaction solution, the D-serine dehydratase activity of the novel enzyme was measured.

[6] = Substrate-specificity by the Nessler method, L-serine as substrate; settings: same conditions as D-serine
Procedure: as §2

Molecule: O=C(O)CN(CCN(CC(=O)O)CC(=O)O)CC(=O)O [EDTA]
- effect of EDTA on enzymatic activity ([1]; incubated with 2 mM EDTA, then dialyzed with Tris buffer): mostly deactivated; also recorded: inhibited

Molecule: [Cl-].[Cl-].[Zn+2] [zinc, ZnCl2]
- effect of zinc on enzymatic activity ([1]; addition of zinc to EDTA-treated enzyme, low concentration): activated
- zinc concentration at which the enzymatic activity was increased most ([1]; same experiment while changing the zinc concentration): 0.005 mM

B1: novel D-serine dehydratase: protein of Saccharomyces cerevisiae, YGL196W (SEQ ID NO: 1), with D-serine dehydratase activity; recombinant, His-tagged, expressed in Escherichia coli (protein, listed as Saccharomyces cerevisiae)
chain: T1 sequence (P53095 1-428)
modifications: His tag
notes: recombinant, His-tagged, expressed in Escherichia coli
- maximum rate ([2]; Example text): 4.2 µmol/min/mg
- Vmax value ([2]; FIG. 7 legend): 4.2 µmol/min/mg
- Km ([2]; read-out: Km value with respect to D-serine): 460 µM
- reactivity to D-threonine when the reactivity to D-serine was 100% [3]: 5%
- reactivity with respect to D-threonine [3]: extremely low
- reactivity with respect to D-threonine ([3]; listed as novel enzyme): low reaction
- specific activity [4]: 3.7 gmol/min/mg
- optimum pH [5]: around 8
- reactivity with respect to L-serine [6]: does not react with L-serine at all
- reactivity with respect to L-serine ([6]; listed as novel enzyme): no reactivity
